Experimental data published in the supplement of paper PMC10065799, “High-throughput profiling of sequence recognition by tyrosine kinases and SH2 domains using bacterial peptide display” (eLife, 2023).
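Further: 11-residue human phosphosite peptides and single-mutation variants displayed on the E. coli surface, counted by deep sequencing, each peptide's frequency after selection divided by its frequency in the unselected input library; frequency after pTyr selection over input frequency; kinase dosed for 20-30% of maximal phosphorylation in three min.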

These sequences were tested on Fer (mouse) (assay: phosphorylation enrichment, bacterial display (enrichment ratio); higher = better substrate or ligand; peptides without Tyr show the background).
For GVKLTYGDAQS [SLC28A1_Y404_N409S], the phosphorylation enrichment was 0.373.
In the case of FQRLQYIKQLG [SAMHD1_Y146_R145Q], the phosphorylation enrichment is reported as 0.453.
LVPAWYIGFLC [KCNQ2_Y237_T234P] showed a phosphorylation enrichment of 0.56.
NRLTDYFELLL [BBS10_Y536_P539L_YF] gave a phosphorylation enrichment of 0.534.
AFSTVYKGLWI [EGFR_Y727_G724S] gave a phosphorylation enrichment of 0.677.
TLNHQYDFTFD [CSNK1A1_Y292_YF] was tested, and the phosphorylation enrichment was 0.543.
EPDSLYGCGGG [ATM_Y2019] showed a phosphorylation enrichment of 1.06.
RASGIYYVPKG [APBB1IP_Y340] was tested, and the phosphorylation enrichment was 1.82.
Work on EGLKVYINGTL [ADGRD1_Y183_V184I] yielded a phosphorylation enrichment of 0.555.
QFKDKYLAKHN [CASK_Y712_YF] showed a phosphorylation enrichment of 0.433.
Sequence RLLRGYNQSAF [HLA-C_Y137_D138N_YF] has a phosphorylation enrichment of 0.268.
For RSIGEYDVLRG [PRKDC_Y2936], the phosphorylation enrichment was 0.428.
LAARYYNWVSF [FLT4_Y1231] showed a phosphorylation enrichment of 5.18.
Work on NFAKMYCNPDA [KNL1_Y489_YF] yielded a phosphorylation enrichment of 0.517.
For IDSTPYGQWYE [RPS8_Y109_R110G], the phosphorylation enrichment was 1.13.
Sequence GGFTCYCDGKK [PROS1_Y266_YF] has a phosphorylation enrichment of 0.511.
With LVKDPYVMFPQ [PLEKHG2_Y489_P484L] the phosphorylation enrichment was 1.12.
KPLMPSMRYSR [SMARCE1_Y73_Y73S] showed a phosphorylation enrichment of 0.377.
Sequence VSKGGYFSVNL [C3orf33_Y164] has a phosphorylation enrichment of 0.423.
AAILGYCRGEA [XPC_Y669] gave a phosphorylation enrichment of 0.419.
In the case of YGAHNYHPLPV [OAT_Y55], the phosphorylation enrichment is reported as 1.06.
KVKPIYFHTRG [AR_Y916_Q920R] showed a phosphorylation enrichment of 0.416.
CTTFHYNYMCN [TP53_Y234_I232F] gave a phosphorylation enrichment of 0.659.
FRAPGYREVVI [TNS2_Y673_YF] showed a phosphorylation enrichment of 0.325.
For LLREWYMIISR [HUWE1_Y4066], the phosphorylation enrichment was 0.723.
For KLFIEYPTGSG [IRF2BPL_Y423], the phosphorylation enrichment was 0.301.
CTNELYMMMRD [FGFR1_Y730] was tested, and the phosphorylation enrichment was 0.693.
With ARGMEYLAEQK [MST1R_Y1198_G1195S] the phosphorylation enrichment was 0.384.
Sequence RGVTRYIYNRE [HLA-DQB1_Y62_Y58G] has a phosphorylation enrichment of 0.768.

What follows are sequences tested against FGFR3 (UniProt P22607) in the same assay as above.
Chain of FGFR3 (P22607 whole entry, looked up): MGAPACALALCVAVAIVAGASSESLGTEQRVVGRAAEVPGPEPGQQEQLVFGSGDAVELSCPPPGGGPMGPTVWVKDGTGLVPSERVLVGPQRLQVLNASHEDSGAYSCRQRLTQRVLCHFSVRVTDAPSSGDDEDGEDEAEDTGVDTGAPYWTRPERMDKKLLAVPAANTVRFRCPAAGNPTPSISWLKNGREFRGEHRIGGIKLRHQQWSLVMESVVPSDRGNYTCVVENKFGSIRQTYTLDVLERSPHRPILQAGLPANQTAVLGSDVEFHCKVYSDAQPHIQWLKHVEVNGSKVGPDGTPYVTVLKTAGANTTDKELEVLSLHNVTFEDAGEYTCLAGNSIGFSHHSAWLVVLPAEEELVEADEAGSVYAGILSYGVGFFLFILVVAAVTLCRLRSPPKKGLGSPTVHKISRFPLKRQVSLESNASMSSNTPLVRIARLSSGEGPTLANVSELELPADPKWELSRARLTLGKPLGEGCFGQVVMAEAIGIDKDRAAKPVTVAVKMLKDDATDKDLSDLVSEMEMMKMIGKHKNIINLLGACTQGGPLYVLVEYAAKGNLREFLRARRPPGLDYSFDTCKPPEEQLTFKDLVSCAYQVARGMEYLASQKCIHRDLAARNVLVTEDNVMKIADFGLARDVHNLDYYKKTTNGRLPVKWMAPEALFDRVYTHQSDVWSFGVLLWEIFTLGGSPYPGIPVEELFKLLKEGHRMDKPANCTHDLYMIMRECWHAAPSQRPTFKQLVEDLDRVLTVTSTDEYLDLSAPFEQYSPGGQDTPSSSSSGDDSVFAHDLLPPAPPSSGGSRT
In the case of GVKLTYGDAQS [SLC28A1_Y404_N409S], the phosphorylation enrichment is reported as 0.453.
Sequence FQRLQYIKQLG [SAMHD1_Y146_R145Q] has a phosphorylation enrichment of 0.517.
Work on LVPAWYIGFLC [KCNQ2_Y237_T234P] yielded a phosphorylation enrichment of 0.812.
Sequence NRLTDYFELLL [BBS10_Y536_P539L_YF] has a phosphorylation enrichment of 5.
In the case of AFSTVYKGLWI [EGFR_Y727_G724S], the phosphorylation enrichment is reported as 0.67.
TLNHQYDFTFD [CSNK1A1_Y292_YF] was tested, and the phosphorylation enrichment was 0.653.
Work on EPDSLYGCGGG [ATM_Y2019] yielded a phosphorylation enrichment of 0.674.
RASGIYYVPKG [APBB1IP_Y340] was tested, and the phosphorylation enrichment was 5.79.
For EGLKVYINGTL [ADGRD1_Y183_V184I], the phosphorylation enrichment was 0.853.
QFKDKYLAKHN [CASK_Y712_YF] showed a phosphorylation enrichment of 0.298.
RLLRGYNQSAF [HLA-C_Y137_D138N_YF] gave a phosphorylation enrichment of 0.547.
Sequence RSIGEYDVLRG [PRKDC_Y2936] has a phosphorylation enrichment of 0.394.
LAARYYNWVSF [FLT4_Y1231] showed a phosphorylation enrichment of 3.57.
In the case of NFAKMYCNPDA [KNL1_Y489_YF], the phosphorylation enrichment is reported as 0.636.
For IDSTPYGQWYE [RPS8_Y109_R110G], the phosphorylation enrichment was 0.701.
Sequence GGFTCYCDGKK [PROS1_Y266_YF] has a phosphorylation enrichment of 0.865.
With LVKDPYVMFPQ [PLEKHG2_Y489_P484L] the phosphorylation enrichment was 3.42.
KPLMPSMRYSR [SMARCE1_Y73_Y73S] showed a phosphorylation enrichment of 0.467.
With VSKGGYFSVNL [C3orf33_Y164] the phosphorylation enrichment was 0.599.
With AAILGYCRGEA [XPC_Y669] the phosphorylation enrichment was 0.556.
Sequence YGAHNYHPLPV [OAT_Y55] has a phosphorylation enrichment of 5.68.
KVKPIYFHTRG [AR_Y916_Q920R] showed a phosphorylation enrichment of 0.614.
Work on CTTFHYNYMCN [TP53_Y234_I232F] yielded a phosphorylation enrichment of 0.713.
FRAPGYREVVI [TNS2_Y673_YF] gave a phosphorylation enrichment of 0.446.
In the case of LLREWYMIISR [HUWE1_Y4066], the phosphorylation enrichment is reported as 1.1.
KLFIEYPTGSG [IRF2BPL_Y423] showed a phosphorylation enrichment of 0.486.
CTNELYMMMRD [FGFR1_Y730] showed a phosphorylation enrichment of 1.28.
ARGMEYLAEQK [MST1R_Y1198_G1195S] showed a phosphorylation enrichment of 0.826.
RGVTRYIYNRE [HLA-DQB1_Y62_Y58G] gave a phosphorylation enrichment of 0.619.

These sequences were tested on c-Src in the same assay as above.
GVKLTYGDAQS [SLC28A1_Y404_N409S] showed a phosphorylation enrichment of 0.349.
With FQRLQYIKQLG [SAMHD1_Y146_R145Q] the phosphorylation enrichment was 0.476.
In the case of LVPAWYIGFLC [KCNQ2_Y237_T234P], the phosphorylation enrichment is reported as 0.51.
With NRLTDYFELLL [BBS10_Y536_P539L_YF] the phosphorylation enrichment was 0.619.
AFSTVYKGLWI [EGFR_Y727_G724S] showed a phosphorylation enrichment of 0.455.
TLNHQYDFTFD [CSNK1A1_Y292_YF] was tested, and the phosphorylation enrichment was 0.485.
EPDSLYGCGGG [ATM_Y2019] showed a phosphorylation enrichment of 2.33.
For RASGIYYVPKG [APBB1IP_Y340], the phosphorylation enrichment was 8.24.
EGLKVYINGTL [ADGRD1_Y183_V184I] showed a phosphorylation enrichment of 0.4.
Work on QFKDKYLAKHN [CASK_Y712_YF] yielded a phosphorylation enrichment of 0.34.
With RLLRGYNQSAF [HLA-C_Y137_D138N_YF] the phosphorylation enrichment was 0.424.
Sequence RSIGEYDVLRG [PRKDC_Y2936] has a phosphorylation enrichment of 0.974.
LAARYYNWVSF [FLT4_Y1231] was tested, and the phosphorylation enrichment was 1.
NFAKMYCNPDA [KNL1_Y489_YF] was tested, and the phosphorylation enrichment was 0.538.
IDSTPYGQWYE [RPS8_Y109_R110G] gave a phosphorylation enrichment of 3.33.
Sequence GGFTCYCDGKK [PROS1_Y266_YF] has a phosphorylation enrichment of 0.354.
LVKDPYVMFPQ [PLEKHG2_Y489_P484L] was tested, and the phosphorylation enrichment was 3.86.
Sequence KPLMPSMRYSR [SMARCE1_Y73_Y73S] has a phosphorylation enrichment of 0.498.
VSKGGYFSVNL [C3orf33_Y164] gave a phosphorylation enrichment of 0.44.
AAILGYCRGEA [XPC_Y669] gave a phosphorylation enrichment of 0.372.
YGAHNYHPLPV [OAT_Y55] showed a phosphorylation enrichment of 0.632.
With KVKPIYFHTRG [AR_Y916_Q920R] the phosphorylation enrichment was 0.477.
In the case of CTTFHYNYMCN [TP53_Y234_I232F], the phosphorylation enrichment is reported as 0.507.
For FRAPGYREVVI [TNS2_Y673_YF], the phosphorylation enrichment was 0.409.
LLREWYMIISR [HUWE1_Y4066] showed a phosphorylation enrichment of 0.419.
KLFIEYPTGSG [IRF2BPL_Y423] gave a phosphorylation enrichment of 0.402.
CTNELYMMMRD [FGFR1_Y730] showed a phosphorylation enrichment of 1.15.
In the case of ARGMEYLAEQK [MST1R_Y1198_G1195S], the phosphorylation enrichment is reported as 0.381.
For RGVTRYIYNRE [HLA-DQB1_Y62_Y58G], the phosphorylation enrichment was 0.953.

Each sequence was assayed against MERTK (UniProt Q12866) in the same assay as above.
Chain of MERTK (Q12866 whole entry, looked up): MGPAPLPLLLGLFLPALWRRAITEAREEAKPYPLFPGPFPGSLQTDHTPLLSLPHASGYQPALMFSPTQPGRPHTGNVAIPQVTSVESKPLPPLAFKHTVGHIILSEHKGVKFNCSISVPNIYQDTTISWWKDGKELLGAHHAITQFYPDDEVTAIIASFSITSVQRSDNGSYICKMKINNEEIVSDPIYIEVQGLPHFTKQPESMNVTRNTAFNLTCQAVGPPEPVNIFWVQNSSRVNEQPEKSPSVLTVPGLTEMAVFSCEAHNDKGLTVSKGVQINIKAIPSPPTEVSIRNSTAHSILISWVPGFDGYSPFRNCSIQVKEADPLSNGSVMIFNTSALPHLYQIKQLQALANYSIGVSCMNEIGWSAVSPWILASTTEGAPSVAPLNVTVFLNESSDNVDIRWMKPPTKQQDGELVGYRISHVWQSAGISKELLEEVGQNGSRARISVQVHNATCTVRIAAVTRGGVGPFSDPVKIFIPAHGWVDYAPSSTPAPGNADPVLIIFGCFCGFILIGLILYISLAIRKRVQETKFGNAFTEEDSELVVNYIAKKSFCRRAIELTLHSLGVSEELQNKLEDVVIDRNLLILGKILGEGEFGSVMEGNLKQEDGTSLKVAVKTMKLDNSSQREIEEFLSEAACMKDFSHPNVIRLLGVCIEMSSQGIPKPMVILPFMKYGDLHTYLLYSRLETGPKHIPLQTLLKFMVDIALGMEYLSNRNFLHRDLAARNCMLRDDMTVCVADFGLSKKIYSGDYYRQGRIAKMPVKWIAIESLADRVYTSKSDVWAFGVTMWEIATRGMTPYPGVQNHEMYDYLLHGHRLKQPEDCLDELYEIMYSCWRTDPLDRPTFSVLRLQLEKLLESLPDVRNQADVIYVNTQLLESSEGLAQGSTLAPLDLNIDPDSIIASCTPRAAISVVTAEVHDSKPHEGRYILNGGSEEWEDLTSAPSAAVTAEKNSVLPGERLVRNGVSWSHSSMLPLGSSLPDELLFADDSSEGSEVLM
GVKLTYGDAQS [SLC28A1_Y404_N409S] gave a phosphorylation enrichment of 0.335.
Sequence FQRLQYIKQLG [SAMHD1_Y146_R145Q] has a phosphorylation enrichment of 0.404.
Work on LVPAWYIGFLC [KCNQ2_Y237_T234P] yielded a phosphorylation enrichment of 0.361.
Sequence NRLTDYFELLL [BBS10_Y536_P539L_YF] has a phosphorylation enrichment of 0.442.
With AFSTVYKGLWI [EGFR_Y727_G724S] the phosphorylation enrichment was 0.395.
TLNHQYDFTFD [CSNK1A1_Y292_YF] was tested, and the phosphorylation enrichment was 0.6.
Work on EPDSLYGCGGG [ATM_Y2019] yielded a phosphorylation enrichment of 0.6.
RASGIYYVPKG [APBB1IP_Y340] was tested, and the phosphorylation enrichment was 19.8.
For EGLKVYINGTL [ADGRD1_Y183_V184I], the phosphorylation enrichment was 0.337.
QFKDKYLAKHN [CASK_Y712_YF] gave a phosphorylation enrichment of 0.403.
For RLLRGYNQSAF [HLA-C_Y137_D138N_YF], the phosphorylation enrichment was 0.56.
Work on RSIGEYDVLRG [PRKDC_Y2936] yielded a phosphorylation enrichment of 0.536.
LAARYYNWVSF [FLT4_Y1231] showed a phosphorylation enrichment of 4.42.
Sequence NFAKMYCNPDA [KNL1_Y489_YF] has a phosphorylation enrichment of 0.536.
IDSTPYGQWYE [RPS8_Y109_R110G] showed a phosphorylation enrichment of 0.526.
With GGFTCYCDGKK [PROS1_Y266_YF] the phosphorylation enrichment was 0.419.
With LVKDPYVMFPQ [PLEKHG2_Y489_P484L] the phosphorylation enrichment was 0.997.
For KPLMPSMRYSR [SMARCE1_Y73_Y73S], the phosphorylation enrichment was 0.467.
Sequence VSKGGYFSVNL [C3orf33_Y164] has a phosphorylation enrichment of 0.418.
With AAILGYCRGEA [XPC_Y669] the phosphorylation enrichment was 0.413.
Work on YGAHNYHPLPV [OAT_Y55] yielded a phosphorylation enrichment of 2.37.
KVKPIYFHTRG [AR_Y916_Q920R] was tested, and the phosphorylation enrichment was 0.456.
Sequence CTTFHYNYMCN [TP53_Y234_I232F] has a phosphorylation enrichment of 0.475.
Work on FRAPGYREVVI [TNS2_Y673_YF] yielded a phosphorylation enrichment of 0.467.
Sequence LLREWYMIISR [HUWE1_Y4066] has a phosphorylation enrichment of 0.433.
In the case of KLFIEYPTGSG [IRF2BPL_Y423], the phosphorylation enrichment is reported as 0.374.
Work on CTNELYMMMRD [FGFR1_Y730] yielded a phosphorylation enrichment of 2.
In the case of ARGMEYLAEQK [MST1R_Y1198_G1195S], the phosphorylation enrichment is reported as 0.435.
RGVTRYIYNRE [HLA-DQB1_Y62_Y58G] gave a phosphorylation enrichment of 0.865.
